The target in this assay is T1, 重组PE免疫毒素 (recombinant Pseudomonas exotoxin A, partial sequence) (Pseudomonas aeruginosa (绿脓杆菌), UniProt P11439 173-638).
T1 construct: also called 重组PE抗原; 重组蛋白PE
T1 sequence: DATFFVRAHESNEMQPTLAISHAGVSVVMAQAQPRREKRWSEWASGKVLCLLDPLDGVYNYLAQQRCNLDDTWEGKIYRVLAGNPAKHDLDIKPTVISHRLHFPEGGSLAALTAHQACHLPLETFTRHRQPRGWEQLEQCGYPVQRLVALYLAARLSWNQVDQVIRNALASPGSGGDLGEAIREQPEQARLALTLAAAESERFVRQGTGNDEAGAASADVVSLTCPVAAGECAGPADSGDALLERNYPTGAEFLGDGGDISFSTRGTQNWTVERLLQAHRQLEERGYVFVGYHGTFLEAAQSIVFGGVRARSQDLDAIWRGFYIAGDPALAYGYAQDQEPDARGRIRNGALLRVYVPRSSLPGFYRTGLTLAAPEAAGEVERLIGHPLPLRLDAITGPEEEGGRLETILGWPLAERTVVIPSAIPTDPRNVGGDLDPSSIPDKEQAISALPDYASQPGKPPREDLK
Briefly: SPR, Biacore T100, 1:1 binding fit.

B1: 纳米抗体VHH-PE 1 (VHH)
VHH: ESGGGLVQAGGSLRLSCAASGRTFSSTGHTFSSYAMGWFRQTPGKEREFVAAISWSGTSTYYADSVKGRFTISRDNAKNTVYLQMNSLKPEDTAVYYCAARFWDYGLGSSDLKSPREYDYWGQGTQ
As to B1, the Kd (in general, the concentration at which binding is half-saturated) is 12.2 nM.

B2: 纳米抗体VHH-PE 2 (VHH)
chain: ESGGGLVQAGGSLRLSGVASRRTFCNYLDAMGWLSLVTGKERELVAHITGNRGDVMYLDSVKAGSTISRVKTNSTVYLQMNSMKPEDTHVYYWAPKATGFFSPKEEEKYNWWGQGTQ
As for B2, the Kd came out at 4.85 nM.

Values taken from CN107827981A (SHENZHEN GUOCHUANG NANOMETER ANTIBODY TECH CO LTD, dated 2018).
